Laboratory results taken from article PMC11813886, “Functional and structural characterization of mouse Factor H-related B protein unveils a novel dimerization domain shared by FHR-B and FH” (Frontiers in Immunology, 2025).

Target: the molecule itself
Assay: AUC; sedimentation velocity, 48000 rpm, protein in PBS pH 7; c(s) distributions with SEDFIT; dimer to monomers

B1: human FHR-1 (natural protein, UniProt Q03591 19-330, looked up)
chain: EATFCDFPKINHGILYDEEKYKPFSQVPTGEVFYYSCEYNFVSPSKSFWTRITCTEEGWSPTPKCLRLCFFPFVENGHSESSGQTHLEGDTVQIICNTGYRLQNNENNISCVERGWSTPPKCRSTDTSCVNPPTVQNAHILSRQMSKYPSGERVRYECRSPYEMFGDEEVMCLNGNWTEPPQCKDSTGKCGPPPPIDNGDITSFPLSVYAPASSVEYQCQNLYQLEGNKRITCRNGQWSEPPKCLHPCVISREIMENYNIALRWTAKQKLYLRTGESAEFVCKRGYRLSSRSHTLRTTCWDGKLEYPTCAKR
notes: human factor H-related protein 1 (FHR-1); also called hFHR-1
**Q.** For B1, which “stoichiometry N” value is on record?
**A.** 2
